Laboratory results as given in patent publication EP1688435A1 (Boehringer Ingelheim International GmbH, dated 2006).

Legend:
Test in all cases: immunoprecipitation with myc antibodies, SDS-PAGE and silver staining (Figure 3B)
[1] = molecular target: T1, human cohesin subunit Smc1 (human, UniProt Q14683 1-1233)
T1 construct: also called Smcl
T1 sequence (looked up): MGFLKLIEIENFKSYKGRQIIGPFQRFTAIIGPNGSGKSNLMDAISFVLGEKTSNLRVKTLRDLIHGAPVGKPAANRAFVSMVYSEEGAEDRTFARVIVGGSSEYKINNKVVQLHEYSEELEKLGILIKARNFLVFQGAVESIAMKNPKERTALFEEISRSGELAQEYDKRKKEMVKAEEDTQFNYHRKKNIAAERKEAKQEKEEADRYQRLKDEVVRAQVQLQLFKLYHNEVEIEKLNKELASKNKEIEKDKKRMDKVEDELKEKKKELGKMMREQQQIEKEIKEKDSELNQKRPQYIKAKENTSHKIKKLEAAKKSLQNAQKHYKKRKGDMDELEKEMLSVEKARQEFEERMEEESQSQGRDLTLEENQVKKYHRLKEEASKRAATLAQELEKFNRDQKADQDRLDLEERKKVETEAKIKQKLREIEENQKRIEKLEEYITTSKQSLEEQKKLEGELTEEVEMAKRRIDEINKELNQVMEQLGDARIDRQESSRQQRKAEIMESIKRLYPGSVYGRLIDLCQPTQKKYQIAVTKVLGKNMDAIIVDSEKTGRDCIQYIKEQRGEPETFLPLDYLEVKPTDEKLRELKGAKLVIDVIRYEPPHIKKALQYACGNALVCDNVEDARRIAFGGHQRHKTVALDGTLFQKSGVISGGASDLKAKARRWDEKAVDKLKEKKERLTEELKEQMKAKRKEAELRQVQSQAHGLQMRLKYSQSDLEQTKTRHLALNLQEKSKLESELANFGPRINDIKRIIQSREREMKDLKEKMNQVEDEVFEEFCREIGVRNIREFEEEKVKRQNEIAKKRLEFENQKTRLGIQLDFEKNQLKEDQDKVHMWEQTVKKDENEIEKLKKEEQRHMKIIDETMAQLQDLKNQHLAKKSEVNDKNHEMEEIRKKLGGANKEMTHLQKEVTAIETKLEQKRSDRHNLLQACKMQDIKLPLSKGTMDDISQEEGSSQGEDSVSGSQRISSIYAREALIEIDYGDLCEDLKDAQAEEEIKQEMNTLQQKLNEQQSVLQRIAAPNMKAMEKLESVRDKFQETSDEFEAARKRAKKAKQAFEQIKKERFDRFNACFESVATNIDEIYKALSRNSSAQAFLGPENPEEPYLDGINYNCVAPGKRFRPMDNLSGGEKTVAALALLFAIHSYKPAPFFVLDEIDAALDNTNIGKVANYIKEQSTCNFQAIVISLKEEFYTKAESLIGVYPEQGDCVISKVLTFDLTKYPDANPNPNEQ

[2] = molecular target: human cohesin subunit Smc3 (human, UniProt Q9UQE7 1-1217)
[3] = molecular target: T2, human cohesin subunit SA1 (cell-cycle state not stated) (human, UniProt Q8WVM7 1-1258)
T2 sequence (looked up): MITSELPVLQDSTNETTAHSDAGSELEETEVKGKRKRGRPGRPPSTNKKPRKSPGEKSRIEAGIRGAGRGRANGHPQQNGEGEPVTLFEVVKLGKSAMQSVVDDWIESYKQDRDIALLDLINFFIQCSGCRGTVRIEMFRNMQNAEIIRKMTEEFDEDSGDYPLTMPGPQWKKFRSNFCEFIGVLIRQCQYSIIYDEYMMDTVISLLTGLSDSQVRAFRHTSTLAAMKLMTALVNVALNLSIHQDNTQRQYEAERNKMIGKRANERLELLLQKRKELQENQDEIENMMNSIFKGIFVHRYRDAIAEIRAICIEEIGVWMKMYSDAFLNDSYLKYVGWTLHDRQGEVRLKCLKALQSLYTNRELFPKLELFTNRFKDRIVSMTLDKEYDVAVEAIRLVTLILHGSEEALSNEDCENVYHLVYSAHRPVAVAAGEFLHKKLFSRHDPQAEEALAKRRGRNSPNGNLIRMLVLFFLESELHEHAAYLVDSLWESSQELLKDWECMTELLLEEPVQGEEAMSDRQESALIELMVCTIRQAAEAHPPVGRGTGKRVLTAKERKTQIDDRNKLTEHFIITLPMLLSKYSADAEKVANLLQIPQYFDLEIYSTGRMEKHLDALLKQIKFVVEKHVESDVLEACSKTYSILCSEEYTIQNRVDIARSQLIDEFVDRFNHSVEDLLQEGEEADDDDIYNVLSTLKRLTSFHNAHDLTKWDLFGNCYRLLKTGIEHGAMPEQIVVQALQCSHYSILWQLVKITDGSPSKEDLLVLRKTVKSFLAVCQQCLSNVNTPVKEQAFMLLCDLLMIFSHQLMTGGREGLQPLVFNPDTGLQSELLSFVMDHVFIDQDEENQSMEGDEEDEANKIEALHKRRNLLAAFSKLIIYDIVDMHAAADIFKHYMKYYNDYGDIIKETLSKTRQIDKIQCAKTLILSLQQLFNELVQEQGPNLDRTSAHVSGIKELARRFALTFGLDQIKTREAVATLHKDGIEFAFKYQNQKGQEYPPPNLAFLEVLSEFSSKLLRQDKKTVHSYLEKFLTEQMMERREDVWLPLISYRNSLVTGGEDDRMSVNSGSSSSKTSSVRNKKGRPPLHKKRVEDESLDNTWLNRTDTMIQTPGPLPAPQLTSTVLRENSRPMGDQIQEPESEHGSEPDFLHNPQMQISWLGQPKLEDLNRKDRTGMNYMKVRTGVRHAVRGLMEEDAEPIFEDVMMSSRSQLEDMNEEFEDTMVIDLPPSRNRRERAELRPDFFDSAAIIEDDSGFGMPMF

[4] = molecular target: T3, human cohesin subunit SA2 (cell-cycle state not stated) (human, UniProt Q8N3U4 1-1231)
T3 construct: Endogenous protein from HeLa cells
T3 sequence: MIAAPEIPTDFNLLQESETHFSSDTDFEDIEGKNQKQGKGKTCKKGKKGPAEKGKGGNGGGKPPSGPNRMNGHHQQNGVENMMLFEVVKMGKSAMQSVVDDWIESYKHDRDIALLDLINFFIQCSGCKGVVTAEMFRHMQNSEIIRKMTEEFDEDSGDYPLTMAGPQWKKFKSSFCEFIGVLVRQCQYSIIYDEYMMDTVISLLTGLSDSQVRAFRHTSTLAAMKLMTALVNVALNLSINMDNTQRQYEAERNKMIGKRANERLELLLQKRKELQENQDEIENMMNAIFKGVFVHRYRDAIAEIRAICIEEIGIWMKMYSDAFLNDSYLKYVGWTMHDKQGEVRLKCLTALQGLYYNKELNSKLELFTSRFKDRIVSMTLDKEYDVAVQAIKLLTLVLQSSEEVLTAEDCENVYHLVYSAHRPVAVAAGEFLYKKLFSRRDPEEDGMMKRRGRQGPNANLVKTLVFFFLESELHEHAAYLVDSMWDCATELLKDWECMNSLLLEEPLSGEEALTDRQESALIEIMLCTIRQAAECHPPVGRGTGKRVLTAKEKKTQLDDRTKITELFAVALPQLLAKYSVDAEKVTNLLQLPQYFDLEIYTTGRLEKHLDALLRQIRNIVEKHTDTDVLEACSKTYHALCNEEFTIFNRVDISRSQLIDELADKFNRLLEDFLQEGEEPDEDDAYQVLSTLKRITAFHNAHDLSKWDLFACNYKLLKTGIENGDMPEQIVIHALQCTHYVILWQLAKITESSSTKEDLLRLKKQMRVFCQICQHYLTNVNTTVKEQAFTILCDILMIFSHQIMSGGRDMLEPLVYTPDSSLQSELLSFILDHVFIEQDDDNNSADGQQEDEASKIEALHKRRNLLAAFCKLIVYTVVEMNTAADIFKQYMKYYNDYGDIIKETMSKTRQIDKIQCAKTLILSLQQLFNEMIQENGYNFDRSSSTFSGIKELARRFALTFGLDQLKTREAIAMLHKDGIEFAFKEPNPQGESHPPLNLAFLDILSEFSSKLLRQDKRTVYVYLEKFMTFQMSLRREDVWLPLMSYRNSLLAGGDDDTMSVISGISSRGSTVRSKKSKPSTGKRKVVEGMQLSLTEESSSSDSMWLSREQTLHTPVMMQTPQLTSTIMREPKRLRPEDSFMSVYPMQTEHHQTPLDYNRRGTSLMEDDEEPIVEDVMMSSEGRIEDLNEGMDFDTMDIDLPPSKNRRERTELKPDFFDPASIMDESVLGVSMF

Measured: binding result

human cohesin subunit Smc3, sequence (Q9UQE7 whole entry): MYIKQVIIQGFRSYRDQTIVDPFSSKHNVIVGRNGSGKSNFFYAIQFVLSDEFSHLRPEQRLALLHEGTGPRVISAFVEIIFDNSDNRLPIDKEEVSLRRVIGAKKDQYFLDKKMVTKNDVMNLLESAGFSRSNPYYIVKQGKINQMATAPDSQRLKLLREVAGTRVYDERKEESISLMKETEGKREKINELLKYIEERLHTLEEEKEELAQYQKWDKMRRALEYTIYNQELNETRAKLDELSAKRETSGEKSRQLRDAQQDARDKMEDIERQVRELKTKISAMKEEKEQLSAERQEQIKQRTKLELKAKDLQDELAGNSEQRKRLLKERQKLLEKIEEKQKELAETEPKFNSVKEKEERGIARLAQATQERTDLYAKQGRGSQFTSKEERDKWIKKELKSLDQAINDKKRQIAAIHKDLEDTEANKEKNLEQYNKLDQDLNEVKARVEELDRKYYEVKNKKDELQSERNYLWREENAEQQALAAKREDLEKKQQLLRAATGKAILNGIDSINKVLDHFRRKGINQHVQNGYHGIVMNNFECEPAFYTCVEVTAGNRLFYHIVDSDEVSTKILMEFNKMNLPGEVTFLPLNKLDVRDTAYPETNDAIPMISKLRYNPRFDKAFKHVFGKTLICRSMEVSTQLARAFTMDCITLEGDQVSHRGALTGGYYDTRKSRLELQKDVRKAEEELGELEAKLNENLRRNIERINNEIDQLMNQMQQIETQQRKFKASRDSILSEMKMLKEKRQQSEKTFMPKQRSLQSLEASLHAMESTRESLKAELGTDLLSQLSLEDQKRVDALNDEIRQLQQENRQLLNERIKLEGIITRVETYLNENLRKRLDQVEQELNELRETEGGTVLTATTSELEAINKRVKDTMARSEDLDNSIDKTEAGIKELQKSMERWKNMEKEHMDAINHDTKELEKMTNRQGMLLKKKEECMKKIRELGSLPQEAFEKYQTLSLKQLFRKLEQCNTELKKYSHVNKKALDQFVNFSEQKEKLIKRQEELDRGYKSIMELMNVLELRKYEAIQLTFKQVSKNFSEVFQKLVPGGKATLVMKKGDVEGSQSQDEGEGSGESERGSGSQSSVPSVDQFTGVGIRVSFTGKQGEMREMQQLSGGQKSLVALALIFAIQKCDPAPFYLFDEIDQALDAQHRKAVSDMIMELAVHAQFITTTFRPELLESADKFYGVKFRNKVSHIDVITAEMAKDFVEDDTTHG

B1: Scc1-S454A-myc expressed in HeLa tet-on cells (cell-cycle state not stated) (other)
chain: MFYAHFVLSKRGPLAKIWLAAHWDKKLTKAHVFECNLESSVESIISPKVKMALRTSGHLLLGVVRIYHRKAKYLLADCNEAFIKIKMAFRPGVVDLPEENREAAYNAITLPEEFHDFDQPLPDLDDIDVAQQFSLNQSRVEEITMREEVGNISILQENDFGDFGMDDREIMREGSAFEDDDMLVSTTTSNLLLESEQSTSNLNEKINHLEYEDQYKDDNFGEGNDGGILDDKLISNNDGGIFDDPPALSEAGVMLPEQPAHDDMDEDDNVSMGGPDSPDSVDPVEPMPTMTDQTTLVPNEEEAFALEPIDITVKETKAKRKRKLIVDSVKELDSKTIRAQLSDYSDIVTTLDLAPPTKKLMMWKETGGVEKLFSLPAQPLWNNRLLKLFTRCLTPLVPEDLRKRRKGGEADNLDEFLKEFENPEVPREDQQQQHQQRDVIDEPIIEEPSRLQEAVMEASRTNIDESAMPPPPPQGVKRKAGQIDPEPVMPPQQVEQMEIPPVELPPEEPPNICQLIPELELLPEKEKEKEKEKEDDEEEEDEDASGGDQDQEERRWNKRTQQMLHGLQRALAKTGAESISLLELCRNTNRKQAAAKFYSFLVLKKQQAIELTQEEPYSDIIATPGPRFHII
notes: not shown: 9xmyc tag at the C-terminus
binds: all assays above
